Experiment [1] has as its target Evasin-3 (HEK) (Rhipicephalus sanguineus) (UniProt P0C8E8). Kind of experiment: SPR.

Usually Kd stands for the concentration at which binding is half-saturated.

Sequence of Evasin-3 (HEK) (Rhipicephalus sanguineus) (P0C8E8 21-86): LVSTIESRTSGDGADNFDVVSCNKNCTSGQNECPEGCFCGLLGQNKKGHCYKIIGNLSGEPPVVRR
Sequence of Evasin-3 (E. coli) (P0C8E8 21-86): as above

For the substance CXCL8 (ligand), the Kd in experiment [1] was 0.7 nM. “Evasin-3 (E. coli) (from UniProt P0C8E8 21-86) (natural protein)” returned an IC50 of inhibition of CXCL8-induced chemotaxis of neutrophils in vitro with CXCL8 (human) of 3.35 nM.

The values above are taken from PMC2526197.
